According to publication PMC4662854, “Structure and function of the N‐terminal domain of the human mitochondrial calcium uniporter” (EMBO Reports, 2015):

Target: the molecule itself
Experiment: cross-linking; glutaraldehyde cross-linking of MCU NTD-E in solution, in PBS and in crystallization conditions

B1: MCU NTD-E (extended N-terminal domain of MCU, residues 75-185) (domain or fragment, human, UniProt Q8NE86-1 75-185, looked up)
chain: VTVVYQNGLPVISVRLPSRRERCQFTLKPISDSVGVFLRQLQEEDRGIDRVAIYSPDGVRVAASTGIDLLLLDDFKLVINDLTYHVRPPKRDLLSHENAATLNDVKTLVQQ
notes: mitochondrial calcium uniporter (MCU), human, NP_612366, residues 75-185; In the crystal residues 183-185 were not modelled and the imidazole ring of His170 is possibly modified by unidentified adducts; source: purified (Ni-NTA, SEC on Superdex 75) by a procedure similar to that of T4 lysozyme-MCU NTD; cloned into pColdII
Q: Does B1 bind?
A: Result: binds
